pKd: −log10 of the molar value.
What was measured:
[1] = molecular target: human monoclonal antibody (HMAb) 1C19, IgG (human); assay: BLI
[2] = molecular target: DENV1 PVP159 strain recombinant E protein ectodomain (residues 1-394) (dengue virus serotype 1, strain PVP159); assay: dynamic light scattering; recombinant E proteins in 20 mM Tris pH 8.0, 200 mM NaCl, 0.025% Tween-20
[3] = molecular target: DENV1 WestPac74 strain recombinant E protein ectodomain (residues 1-394) (dengue virus serotype 1, strain WestPac 74); assay: as above
[4] = molecular target: DENV2 NGC strain recombinant E protein ectodomain (residues 1-394) (dengue virus serotype 2, strain NGC); assay: as above
[5] = molecular target: DENV2 PVP94/07 strain recombinant E protein ectodomain (residues 1-394) (dengue virus serotype 2, strain PVP94/07); assay: as above
[6] = molecular target: E protein on DENV1 strain WestPac 74 virus particles (dengue virus serotype 1, strain WestPac 74); assay: cryo-EM structure

human monoclonal antibody (HMAb) 1C19, IgG (human), sequence (heavy, as listed by the source, chain 1 of 2): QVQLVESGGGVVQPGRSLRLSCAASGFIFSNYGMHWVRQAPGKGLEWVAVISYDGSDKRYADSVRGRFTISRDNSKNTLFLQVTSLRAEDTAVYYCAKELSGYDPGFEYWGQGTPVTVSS
human monoclonal antibody (HMAb) 1C19, IgG (human), sequence (light, as listed by the source, chain 2 of 2): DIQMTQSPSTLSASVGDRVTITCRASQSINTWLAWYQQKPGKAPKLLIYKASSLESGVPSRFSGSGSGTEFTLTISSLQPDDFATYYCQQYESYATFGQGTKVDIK

Substance: DENV1 PVP159 strain recombinant E protein ectodomain (residues 1-394) (domain or fragment)
- pKd [1]: 9.15
- stoichiometry N [2]: 2

Substance: DENV1 WestPac74 strain recombinant E protein ectodomain (residues 1-394) (domain or fragment)
- stoichiometry N [3]: 2

Substance: DENV2 NGC strain recombinant E protein ectodomain (residues 1-394) (domain or fragment)
- stoichiometry N [4]: 2

Substance: DENV2 PVP94/07 strain recombinant E protein ectodomain (residues 1-394) (domain or fragment)
- stoichiometry N [5]: 2

Substance: Fab 1C19
- copies of Fab bound per virus particle (180 E proteins), Class I [6]: 60 copies
- copies of Fab bound per virus particle (180 E proteins), Class II [6]: 60 copies
